Results taken from US20110244498.

Test system: non-phosphorylated pKID-Abl

## Abl tyrosine kinase (New England Biolabs)
  conversion of non-phosphorylated pKID-Abl to phosphorylated pKID-Abl (analytical HPLC, 30 min at 37 C, 300 units Abl): 62% conversion of non-phosphorylated pKID-Abl to phosphorylated pKID-Abl in the absence of Gleevec
  conversion of non-phosphorylated pKID-Abl to phosphorylated pKID-Abl in the presence of 50 µM Gleevec (analytical HPLC): less than 5% conversion was observed in the presence of Gleevec
  terbium luminescence after incubation with kinase: resulted in a significant increase in terbium luminescence
